Laboratory results published in patent US20250332212A1, “METHOD FOR TREATING OR PREVENTING ALOPECIA” (Suzhou Mingren Pharmaceutical Biotechnology Co., Ltd., priority 2024, published 2025).
Square brackets hold non-standard residues; d marks the D form. Ends that are not written are not given here. pS = N[C@@H](COP(=O)(O)O)C(=O)O

Conditions: mouse, in vivo

Substance: FPGSDRF-RGD (FPG[pS]DRFRGD) [JP1]
- penetration into skin and follicle tissue: able to penetrate into the skin and enter into the follicle tissue in a targeted manner
